Article PMC9413830

What follows are substances tested on Lys1 (position 1, -----K-----) (assay: potentiometry). Details: No added salt; only the amphiphile counterions and the added NaOH; none (ultrapure water); 4 mM amphiphile, self-assembled; the assembly morphology changes with pH during the titration.

Substance | pKa
C12-K (lysine amphiphile with a C12 alkyl tail) (synthetic) | 8.69
C14-K (lysine amphiphile with a C14 alkyl tail) (synthetic) | 8.01
C16-K (lysine amphiphile with a C16 alkyl tail; L enantiomer titrated) (synthetic) | 7.66
